Data set [1] is described as follows: BTK FAC plasma stability assay, PBS buffer arm. Conditions: for Plasma stability (h) PBS: incubation to 24 h. The format is physicochemical. A digest of the protocol: (§1)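 Stability in PBS buffer or EDTA-treated plasma is followed over 24 h at 38 °C with shaking. Protein precipitation with acetonitrile (glyburide 0.2 µM as internal standard) stops each timepoint, and LC-MS/MS gives analyte-to-standard area ratios.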

Data set [2] in a line: BTK FAC plasma stability assay, mouse plasma. The format is in vitro ADME. Conditions: for Plasma stability (h) mouse: incubation to 24 h. In short, it runs like this: as §1
Data set [3] in a line: BTK FAC plasma stability assay, rat plasma. The format is in vitro ADME. Conditions: for Plasma stability (h) rat: incubation to 24 h. In short, it runs like this:
as §1

A short description of data set [4]: BTK FAC plasma stability assay, dog plasma. In kind it is in vitro ADME.
The target in the next data set is T1, BTK C481S (Homo sapiens, UniProt Q06187, C481S).
T1 construct: endogenous in cells; host or cells: TMD8 BTK C481S mutant tumour xenografts in mice
Nature of the data set: PD screen in TMD8 BTK C481S mutant tumor-bearing mice, BTK levels and compound concentrations in blood and tumor. Conditions: 25 umol/kg. In kind it is in vivo, mouse. As for the experimental part: All animal studies were conducted in accordance with ethics and procedures covered by permit nos. BS-1975 issued by the Kantonales Veterinäramt Basel-Stadt and in strict adherence to guidelines of the Eidgenössisches Tierschutzgesetz and the Eidgenössische Tierschutzverordnung, Switzerland. All animals had access to food and water ad libitum and were identified with transponders. They were housed in a specific pathogen-free facility with a 12-h light/12-h dark cycle. For PD screen experiments in TMD8 BTK C481S mutant tumor-bearing mice, FAC was injected once. Animals were randomized into groups of 2 and tissue samples collected at day 0, 4, 7 and in some studies day 10 as well. Blood samples were collected and tumors were excised, weighed, frozen in liquid nitrogen and cryogenic dry pulverized with the CryoPrep™ system (model CP-02, Covaris). Concentrations of compounds in blood and tumors were determined by UPLC/MS-MS and BTK levels were analyzed by Meso Scale Discovery.

Data set [5] can be described thus: BTK FAC plasma stability assay, cyno plasma. In kind it is in vitro ADME, cynomolgus monkey.

Each structure is given as a SMILES string. Some results are limits rather than exact numbers.

T1 sequence (Q06187 whole entry C481S): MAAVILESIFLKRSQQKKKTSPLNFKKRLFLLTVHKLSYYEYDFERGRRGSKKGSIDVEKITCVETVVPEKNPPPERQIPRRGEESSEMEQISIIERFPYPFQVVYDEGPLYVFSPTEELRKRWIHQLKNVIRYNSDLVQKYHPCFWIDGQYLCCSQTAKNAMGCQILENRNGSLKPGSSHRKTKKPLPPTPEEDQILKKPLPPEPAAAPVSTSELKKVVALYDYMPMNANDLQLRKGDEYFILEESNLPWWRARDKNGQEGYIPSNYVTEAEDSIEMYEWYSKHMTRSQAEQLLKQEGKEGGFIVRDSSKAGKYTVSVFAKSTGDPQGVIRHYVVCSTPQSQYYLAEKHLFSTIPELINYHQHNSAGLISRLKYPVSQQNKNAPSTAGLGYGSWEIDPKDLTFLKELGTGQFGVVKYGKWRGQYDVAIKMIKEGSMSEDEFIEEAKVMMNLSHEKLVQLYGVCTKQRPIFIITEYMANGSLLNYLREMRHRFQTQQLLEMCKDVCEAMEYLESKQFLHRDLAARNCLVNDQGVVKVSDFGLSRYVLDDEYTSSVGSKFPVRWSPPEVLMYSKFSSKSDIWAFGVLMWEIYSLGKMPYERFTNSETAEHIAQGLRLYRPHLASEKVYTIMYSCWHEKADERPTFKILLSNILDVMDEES

In the case of `CCCCCCCCCCCN(C(=O)CCCCCCCCCC(=O)O)C(CCC(=O)NCCOCCOCCOCCOCCOCCOCCOCCOCCOCCOCCOCCOCCC(=O)N[C@@H](C)C(=O)OC(C)(C)c1ccc(C(=O)Nc2cc(F)cc(-c3ncnc4[nH]c(-c5ccc(CCN6CCC7(CC6)CCN(C(=O)c6ccc(OC)c(N8CCC(=O)NC8=O)c6)CC7)cc5)cc34)c2C)c(F)c1)C(=O)O` (stereo partly drawn) [Example A16, (5S)-50-Carboxy-2-(4-((3-(6-(4-(2-(9-(3-(2,4-dioxotetrahydropyrimidin-1(2H)-yl)-4-methoxybenzoyl)-3,9-diazaspiro[5.5]undecan-3-yl)ethyl)phenyl)-7H-pyrrolo[2,3-d]pyrimidin-4-yl)-5-fluoro-2-methylphenyl)carbamoyl)-3-fluorophenyl)-2,5-dimethyl-4,7,47,52-tetraoxo-51-undecyl-3,10,13,16,19,22,25,28,31,34,37,40,43-tridecaoxa-6,46,51-triazadohexacontan-62-oic acid], in data set [1], the “% Release of degrader after 24 h PBS” value was 2% and the “Plasma stability (h) PBS” value is above 48 h. Further, in data set [2], the “% Release of degrader after 24 h mouse” value was found to be 1.9% and the “Plasma stability (h) mouse” value is listed as above 48 h. Besides, in data set [3], the “% Release of degrader after 24 h rat” value is reported as 11% and the “Plasma stability (h) rat” value is on record as above 48 h. In data set [4], the “Plasma stability (h) dog” value is given as 31.2 h and the “% Release of degrader after 24 h dog” value was 5%. The “Duration of BTK degradation in mouse ≥90%” value (shortened to “Duration … in mouse ≥90%”) at BTK C481S (i.v.) was 4 days.
In the case of `CCCCCCCCCCCN(C(=O)CCCCCCCCCC(=O)O)C(CCC(=O)NCCOCCOCCOCCOCCOCCOCCOCCOCCOCCOCCOCCOCCC(=O)N[C@H](C)C(=O)OC(C)(C)c1ccc(C(=O)Nc2cc(F)cc(-c3ncnc4[nH]c(-c5ccc(CCN6CCC7(CC6)CCN(C(=O)c6ccc(OC)c(N8CCC(=O)NC8=O)c6)CC7)cc5)cc34)c2C)c(F)c1)C(=O)O` (stereo partly drawn) [Example A17, (5R)-50-Carboxy-2-(4-((3-(6-(4-(2-(9-(3-(2,4-dioxotetrahydropyrimidin-1(2H)-yl)-4-methoxybenzoyl)-3,9-diazaspiro[5.5]undecan-3-yl)ethyl)phenyl)-7H-pyrrolo[2,3-d]pyrimidin-4-yl)-5-fluoro-2-methylphenyl)carbamoyl)-3-fluorophenyl)-2,5-dimethyl-4,7,47,52-tetraoxo-51-undecyl-3,10,13,16,19,22,25,28,31,34,37,40,43-tridecaoxa-6,46,51-triazadohexacontan-62-oic acid], in data set [1], the “% Release of degrader after 24 h PBS” value came out at 1.2% and the “Plasma stability (h) PBS” value is given as above 48 h. In data set [2], the “% Release of degrader after 24 h mouse” value is reported as 2.3% and the “Plasma stability (h) mouse” value is on record as above 48 h. Further, in data set [3], the “% Release of degrader after 24 h rat” value turned out to be 2.5% and the “Plasma stability (h) rat” value was above 48 h. In addition, in data set [4], the “Plasma stability (h) dog” value amounted to 33.3 h and the “% Release of degrader after 24 h dog” value came to 3.7%. For the same compound, the “Duration … in mouse ≥90%” value on BTK C481S (i.v.) came to 4 days.
In the case of `CCCCCCCCCCCN(C(=O)CCCCCCCCCC(=O)O)[C@@H](CCC(=O)NCCOCCOCCOCCOCCOCCOCCOCCOCCOCCOCCOCCOCCC(=O)N(CCC(=O)OC(C)(C)c1ccc(C(=O)Nc2cc(F)cc(-c3ncnc4[nH]c(-c5ccc(CCN6CCC7(CC6)CCN(C(=O)c6ccc(OC)c(N8CCC(=O)NC8=O)c6)CC7)cc5)cc34)c2C)c(F)c1)CC(=O)O)C(=O)O` [Example A24, (S)-2-(3-((2-(4-((3-(6-(4-(2-(9-(3-(2,4-Dioxotetrahydropyrimidin-1(2H)-yl)-4-methoxybenzoyl)-3,9-diazaspiro[5.5]undecan-3-yl)ethyl)phenyl)-7H-pyrrolo[2,3-d]pyrimidin-4-yl)-5-fluoro-2-methylphenyl)carbamoyl)-3-fluorophenyl)propan-2-yl)oxy)-3-oxopropyl)-3,43,48-trioxo-47-undecyl-6,9,12,15,18,21,24,27,30,33,36,39-dodecaoxa-2,42,47-triazaheptapentacontane-1,46,57-tricarboxylic acid], in data set [1], the “% Release of degrader after 24 h PBS” value is on record as 2.8% and the “Plasma stability (h) PBS” value is above 48 h. Further, in data set [2], the “% Release of degrader after 24 h mouse” value was found to be 7.4% and the “Plasma stability (h) mouse” value is listed as above 48 h. In addition, in data set [3], the “% Release of degrader after 24 h rat” value came out at 7.2% and the “Plasma stability (h) rat” value is listed as above 48 h. Besides, in data set [4], the “Plasma stability (h) dog” value was above 48 h and the “% Release of degrader after 24 h dog” value worked out at 5.9%. In addition, the “Duration … in mouse ≥90%” value at BTK C481S (i.v.) was 10 days. In addition, the “Duration … in mouse ≥90%” value at BTK C481S (s.c.) came to 10 days.
With `CCCCCCCCCCCN(C(=O)CCCCCCCCCC(=O)O)C(CCC(=O)NCCOCCOCCOCCOCCOCCOCCOCCOCCOCCOCCOCCOCCC(=O)NCc1cc(C(=O)OC(C)(C)c2ccc(C(=O)Nc3cc(F)cc(-c4ncnc5[nH]c(-c6ccc(CCN7CCC8(CC7)CCN(C(=O)c7ccc(OC)c(N9CCC(=O)NC9=O)c7)CC8)cc6)cc45)c3C)c(F)c2)ccn1)C(=O)O` (centres unmarked) [Example A26, 46-Carboxy-1-(4-(((2-(4-((3-(6-(4-(2-(9-(3-(2,4-dioxotetrahydropyrimidin-1(2H)-yl)-4-methoxybenzoyl)-3,9-diazaspiro[5.5]undecan-3-yl)ethyl)phenyl)-7H-pyrrolo[2,3-d]pyrimidin-4-yl)-5-fluoro-2-methylphenyl)carbamoyl)-3-fluorophenyl)propan-2-yl)oxy)carbonyl)pyridin-2-yl)-3,43,48-trioxo-47-undecyl-6,9,12,15,18,21,24,27,30,33,36,39-dodecaoxa-2,42,47-triazaoctapentacontan-58-oic acid], in data set [1], the “% Release of degrader after 24 h PBS” value worked out at 7% and the “Plasma stability (h) PBS” value is listed as above 48 h. Further, in data set [2], the “% Release of degrader after 24 h mouse” value stood at 20.4% and the “Plasma stability (h) mouse” value amounted to 30.5 h. Also, in data set [3], the “% Release of degrader after 24 h rat” value is 7.6% and the “Plasma stability (h) rat” value was above 48 h. In addition, in data set [4], the “Plasma stability (h) dog” value stood at 39.2 h and the “% Release of degrader after 24 h dog” value stood at 10.9%. The “Duration … in mouse ≥90%” value at BTK C481S (i.v.) is listed as 7 days.
For `COCCOCCOCCOCCOCCOCCOCCOCCOCCOCCOCCOCCC(=O)NCC(=O)OC(C)(C)c1ccc(C(=O)Nc2cc(F)cc(-c3ncnc4[nH]c(-c5ccc(CCN6CCC7(CC6)CCN(C(=O)c6ccc(OC)c(N8CCC(=O)NC8=O)c6)CC7)cc5)cc34)c2C)c(F)c1` [Example A34, 2-(4-((3-(6-(4-(2-(9-(3-(2,4-Dioxotetrahydropyrimidin-1(2H)-yl)-4-methoxybenzoyl)-3,9-diazaspiro[5.5]undecan-3-yl)ethyl)phenyl)-7H-pyrrolo[2,3-d]pyrimidin-4-yl)-5-fluoro-2-methylphenyl)carbamoyl)-3-fluorophenyl)propan-2-yl (2,5,8,11,14,17,20,23,26,29,32,35-dodecaoxaoctatriacontan-38-oyl)glycinate], in data set [1], the “% Release of degrader after 24 h PBS” value was 5.2% and the “Plasma stability (h) PBS” value is above 48 h. In data set [2], the “% Release of degrader after 24 h mouse” value is listed as 26.2% and the “Plasma stability (h) mouse” value is 6.8 h. In data set [3], the “% Release of degrader after 24 h rat” value is given as 42.2% and the “Plasma stability (h) rat” value stood at 5.3 h. Besides, in data set [4], the “Plasma stability (h) dog” value was above 48 h and the “% Release of degrader after 24 h dog” value came to 5.3%. In addition, in data set [5], the “Plasma stability (h) cyno” value was found to be 30.6 h. In addition, the “% Release of degrader after 24 h cyno” value in data set [5] (24 h) amounted to 13.9%.
